Data reported in US20190117772, “METHODS FOR THE TREATMENT OF CARDIAC HYPERTROPHY” (UNIVERSITY OF CINCINNATI, published 2019).

Molecular target: HuR (Human antigen R, ELAVL1) (UniProt Q15717 Q15717:1-326)
Assay: SPR; localized SPR (LSPR) on gold nanoparticle arrays; sizable red shift on HuR addition; inhibitor CMLD-1 disrupted binding (10 nm leftward shift)
Details: tags: Novus Biologicals H00001994-P01; tethered by base pairing to thiolated ssDNA on gold nanoparticles
Method: Next a target RNA strand containing a DNA hybridizing region, which binds via base pair matching with the ssDNA on the nanoparticle, and a hairpin loop containing a HuR target binding site. The specific target RNA strand used (SEQ ID NO 7) contains a specific HuR binding motif, has the RNA sequence 5′-GCG-AAU-UGG-GCC-CGA-CGU-CGC-AUG-GCU-UUU-AUU-UAU-UUU-GCA-UGG-CCG-CGG-GAU-3′, and was from Integrated DNA Technologies (IDT). Last, the HuR protein is added and binds to its target site withing the RNA hairpin loop. The specific HuR protein used was a recombinant HuR protein from Novus Biologicals (product #:H00001994-P01). For each step of the assembly, sizable LSPR shifts were observed, confirming our ability to quantitatively measure the expected binding at each step (FIG. 11A-C).

Sequence of HuR (Human antigen R, ELAVL1) (Q15717 whole entry, one chain of several): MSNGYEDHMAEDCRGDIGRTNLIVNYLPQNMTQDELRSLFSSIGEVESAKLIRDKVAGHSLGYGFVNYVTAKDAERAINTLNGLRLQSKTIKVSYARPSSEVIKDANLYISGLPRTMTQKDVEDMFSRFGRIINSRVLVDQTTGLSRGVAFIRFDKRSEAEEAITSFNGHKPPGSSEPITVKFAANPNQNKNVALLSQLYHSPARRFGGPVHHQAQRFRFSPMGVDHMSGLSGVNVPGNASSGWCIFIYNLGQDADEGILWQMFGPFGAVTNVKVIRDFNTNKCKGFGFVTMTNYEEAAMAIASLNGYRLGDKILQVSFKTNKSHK

B1: HuR target RNA with DNA-hybridizing region and hairpin loop (ssRNA)
RNA: GCGAAUUGGGCCCGACGUCGCAUGGCUUUUAUUUAUUUUGCAUGGCCGCGGGAU
Does B1 bind?
Result: binds
